Measured values taken from publication PMC6969062, “Ultrasensitive nano-aptasensor for monitoring retinol binding protein 4 as a biomarker for diabetes prognosis at early stages”.

Biological target: RBP4 (retinol binding protein 4) (Homo sapiens, UniProt P02753 19-201)
Assay: aptamer-antibody sandwich chemiluminescence on streptavidin wells; 2 mM Mg2+, 1 mM Ca2+; linear range 0.001-2 ng/mL, LOD 951 fg/mL; Binding buffer 20 mM Tris-HCl pH 7.6, 100 mM NaCl, 2 mM MgCl2, 5 mM KCl, 1 mM CaCl2, 0.02% Tween-20; RBP4 1 h (temperature not stated), reporter antibody step 1

B1: RBA (RBP4 aptamer), biotin-T10 (ssDNA)
DNA: TTTTTTTTTTATACCAGCTTATTCAATTACAGTAGTGAGGGGTCCGTCGTGGGGTAGTTGGGTCGTGGAGATAGTAAGTGCAATCT
  binding result: binds
